Where a chain is given by its changes, count along the chain named.

Sequences and labels used below:
T1: human CD19 on CHO cells (human, UniProt P15391 20-556)
T1 construct: whole, on cells; also called Cells Expressing Human CD19; CHO cells overexpressing the antigen
T1 sequence (looked up): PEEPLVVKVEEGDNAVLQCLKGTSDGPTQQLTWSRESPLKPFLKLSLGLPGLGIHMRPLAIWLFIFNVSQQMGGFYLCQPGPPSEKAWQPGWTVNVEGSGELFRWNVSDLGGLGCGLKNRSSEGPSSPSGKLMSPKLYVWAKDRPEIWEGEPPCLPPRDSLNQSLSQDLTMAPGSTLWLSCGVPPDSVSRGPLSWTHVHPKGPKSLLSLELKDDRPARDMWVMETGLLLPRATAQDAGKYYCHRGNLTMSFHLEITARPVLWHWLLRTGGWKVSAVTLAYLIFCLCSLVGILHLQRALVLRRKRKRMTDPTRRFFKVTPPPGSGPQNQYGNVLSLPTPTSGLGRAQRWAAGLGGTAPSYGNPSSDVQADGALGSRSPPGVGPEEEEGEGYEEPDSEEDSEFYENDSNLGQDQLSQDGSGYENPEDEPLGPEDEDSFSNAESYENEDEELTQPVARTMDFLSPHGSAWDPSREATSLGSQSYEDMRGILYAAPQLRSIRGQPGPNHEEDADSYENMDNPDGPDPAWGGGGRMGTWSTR

T2: human CD19 (human, UniProt P15391 20-291, biotinylated in the Biacore assay of Table 11)
T2 construct: also called isolated CD19; Human CD19 Protein
T2 sequence (looked up): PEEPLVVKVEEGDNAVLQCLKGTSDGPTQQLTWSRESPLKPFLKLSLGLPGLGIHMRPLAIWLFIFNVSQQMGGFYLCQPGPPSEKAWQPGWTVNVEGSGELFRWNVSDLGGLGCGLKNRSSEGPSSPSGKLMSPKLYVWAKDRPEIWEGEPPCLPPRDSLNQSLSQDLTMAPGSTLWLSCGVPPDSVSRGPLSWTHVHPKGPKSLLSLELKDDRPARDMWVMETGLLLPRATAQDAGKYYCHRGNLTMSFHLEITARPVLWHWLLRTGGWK

B1: CNG-CD19-703 (antibody, V domains shown)
VH: QVQLQESGPGLVKPSQTLSLTCTVSGGSISTSTMGVGWIRQHPGKGLEWIGFIWWDDDKRYNPNLKSRVTMSVDTSKNQFSLKLSSVTAADTAVYYCARMELWSYYFEYWGQGTLVTVSS
VL: EIVLTQSPATLSLSPGERATLSCSASSSVSYMHWYQQKPGQAPRLLIYDTSKLASGIPARFSGSGSGTDFTLTISSLEPEDFAVYYCFQGSVYPFTFGQGTKLEIK
notes: tested as IgG produced in yeast
B2: CNG-CD19-704 (antibody, V domains shown)
VH: QVQLQESGPGLVKPSQTLSLTCTVSGGSIASGMGVGWIRQHPGKGLEWIGHIWWDDDKRYNPALKSRVTISVDTSKNQFSLKLSSVTAADTAVYYCARMELWSYYFDGWGQGTLVTVSS
VL: B1 VL
notes: as for B1
B3: CNG-CD19-706 (antibody, V domains shown)
VH: B2 VH with G36S, G108P
VL: B1 VL with S30G
notes: as for B1
B4: CNG-CD19-705 (antibody, V domains shown)
VH: B1 VH with T33G, F52H, N64A, M71I, E108D
VL: B1 VL with S30G, K52S
notes: as for B1
B5: CNG-CD19-708 (antibody, V domains shown)
VH: B1 VH with E108D, Y109P
VL: B1 VL with S30G, A54S
notes: as for B1
B6: CNG-CD19-710 (antibody, V domains shown)
VH: B1 VH with G27V, T33S, F52H, I53A, N64A, M71I, E108D, Y109P
VL: B1 VL with V29F
notes: as for B1
B7: CNG-CD19-707 (antibody, V domains shown)
VH: B1 VH with E108D, Y109P
VL: B1 VL with S30G
notes: as for B1
B8: CNG-CD19-709 (antibody, V domains shown)
VH: B1 VH with E108D, Y109P
VL: B1 VL with S30G, S55F
notes: as for B1
B9: CNG-HSA-117 (VHH)
VHH: KVQLVESGGGLVQPGNSLRLSCAASGFTFSSFGMSWVRQAPGKGLEWVSSISGSGSDTLYADSVKGRFTISRDNSKNTLYLQMNSLRAEDTAVYYCTIGGSLTRSSQGTLVTVSS
B10: CNG-HSA-114 (VHH)
VHH: B9 VHH with Y60T, T103V
B11: CNG-HSA-103 (VHH)
VHH: B9 VHH with N16G, S35T, K65R, A88P, T103S, R104P
B12: CNG-HSA-120 (VHH)
VHH: B9 VHH with N16G, L45P, A88P, T103K, R104Q
B13: CNG-HSA-119 (VHH)
VHH: B9 VHH with T58A, V64A, S75A, N77T, T103S, R104P
B14: CNG-HSA-115 (VHH)
VHH: B9 VHH with S35G, D62P, A88P, I98F, G99A, T103S
B15: CNG-HSA-118 (VHH)
VHH: B9 VHH with S54G, K65R, T103R, R104A
B16: CNG-HSA-104 (VHH)
VHH: B9 VHH with V5L, N16G, S30H, A88P, T103S
B17: CNG-HSA-101 (VHH)
VHH: B9 VHH with N16G, S35T, K65R, T103S, R104P

T4 sequence (P07724 25-608 limits assumed): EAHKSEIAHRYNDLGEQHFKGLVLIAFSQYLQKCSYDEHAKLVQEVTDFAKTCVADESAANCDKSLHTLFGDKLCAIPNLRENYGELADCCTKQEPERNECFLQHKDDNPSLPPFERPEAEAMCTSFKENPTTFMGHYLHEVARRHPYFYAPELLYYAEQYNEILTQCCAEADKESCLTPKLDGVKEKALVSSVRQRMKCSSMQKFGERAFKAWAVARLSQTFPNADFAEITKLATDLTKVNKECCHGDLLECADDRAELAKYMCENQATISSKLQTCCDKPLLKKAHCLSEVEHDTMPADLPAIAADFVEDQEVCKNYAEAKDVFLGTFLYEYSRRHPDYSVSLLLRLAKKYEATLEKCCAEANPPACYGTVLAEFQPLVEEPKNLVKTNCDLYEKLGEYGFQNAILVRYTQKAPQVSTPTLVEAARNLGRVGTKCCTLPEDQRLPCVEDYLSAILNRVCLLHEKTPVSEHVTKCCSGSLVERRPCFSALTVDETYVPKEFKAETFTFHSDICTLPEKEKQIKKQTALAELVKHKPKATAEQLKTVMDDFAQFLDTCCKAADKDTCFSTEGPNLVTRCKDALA

In the first experiment the target is T1, human CD19 on CHO cells. Briefly: flow cytometry, CHO cells, 100 nM IgG. The method, then:
The binding affinity of the antibodies to CD19 expressed on the cell surface was also measured. Briefly, approximately 100,000 Chinese hamster overy (CHO) cells overexpressing the antigen were washed with wash buffer and incubated with 100 μl 100 nM IgG for 15 minutes at room temperature. Cells were then washed twice with wash buffer and incubated with 100 μl of 1:100 Human-PE for 15 minutes on ice. Cells were then washed twice more with wash buffer and analyzed on a FACS Canto II analyzer (BD Biosciences).
For the molecule B1, the “Binding to Cells Expressing Human CD19 (FOB)” value (“Binding” below) is 135 FOB.

Regarding B2, the “Binding” value was found to be 140 FOB.

Regarding B3, the “Binding” value came to 241 FOB.

Consider B4, for which the “Binding” value is 105 FOB.

Regarding B5, the “Binding” value stood at 210 FOB.

Take B6: the “Binding” value turned out to be 153 FOB.

B7: the “Binding” value amounted to 237 FOB.

Turning to B8, the “Binding” value came out at 234 FOB.

Another experiment has as its target T2, human CD19. Briefly: Octet HTX (ForteBio), IgG on AHC sensor, 1:1 fit. The method, then: The binding affinity of the antibodies to isolated CD19 was measured by […] using a ForteBio Octet HTX system as previously described (see, e.g., Estep et al, High throughput solution-based measurement of antibody-antigen affinity and epitope binning. Mabs 5(2), 270-278 (2013)). Briefly, ForteBio affinity measurements were performed by loading IgGs on-line onto anti-hIgG Fc Capture (AHC) sensors. The sensors were equilibrated off-line in assay buffer for 30 minutes and then monitored on-line for 60 seconds for baseline establishment. The sensors with loaded IgGs were exposed to 100 nM […] for 3 minutes, and subsequently transferred to assay buffer for 3 minutes for off-rate measurement. All kinetics were analyzed using the 1:1 binding model.
A general note: BLI is a label-free optical method that tracks binding on a fibre tip over time.
The term Kd denotes the free concentration of one partner at which half of the binding sites on the other are occupied at equilibrium, for simple one-to-one binding. Low readings indicate higher affinity, high ones lower affinity. A word on the koff: it is the first-order rate constant of dissociation. A low value points to slow dissociation. Regarding B1, the Kd amounted to 0.289 nM and the koff was 8.19e-05 s⁻¹.

B2 registered a Kd of 0.367 nM and a koff of 0.000101 s⁻¹.

In turn, B3 returned a Kd of 0.0859 nM and a koff of 4e-05 s⁻¹.

On to B4, for which the Kd was found to be 0.248 nM and the koff turned out to be 4.7e-05 s⁻¹.

On to B5, for which binding was characterised by a dissociation constant (Kd) of 0.156 nM and the koff is 6.69e-05 s⁻¹.

For B6, binding was put at a Kd of 0.135 nM and the koff came to 4e-05 s⁻¹.

B7 displayed a Kd of 0.104 nM and a koff of 4.66e-05 s⁻¹.

For the molecule B8, the Kd was 0.107 nM and the koff is 4.6e-05 s⁻¹.

In the next experiment the target is T3, human serum albumin (human, UniProt P02768 25-609).
T3 construct: also called HSA
Briefly: Octet HTX (ForteBio), HCAb on AHC sensor, 1:1 fit.
Take B9: binding was characterised by a dissociation constant (Kd) of 5.56 nM and the koff is 0.000793 s⁻¹.

Molecule B10 showed a Kd of 14.7 nM and a koff of 0.00221 s⁻¹.

B11 came in with a Kd of 4.89 nM and a koff of 0.000742 s⁻¹.

As for B12, the Kd is 3.15 nM and the koff was 0.000507 s⁻¹.

In turn, B13 registered a Kd of 7.36 nM and a koff of 0.00109 s⁻¹.

On to B14, for which the Kd was 2.96 nM and the koff was found to be 0.000441 s⁻¹.

As for B15, the Kd came to 9.36 nM and the koff was 0.0013 s⁻¹.

Molecule B16 yielded a Kd of 7.71 nM and a koff of 0.00112 s⁻¹.

As for B17, binding was characterised by a dissociation constant (Kd) of 5.07 nM and the koff was 0.000716 s⁻¹.

For a further experiment, the target named is cynomolgus serum albumin (cynomolgus, UniProt A2V9Z4 25-608). The experiment in a line: Octet HTX (ForteBio), HCAb on AHC sensor, 1:1 fit.
cynomolgus serum albumin, sequence (A2V9Z4 25-608 limits assumed): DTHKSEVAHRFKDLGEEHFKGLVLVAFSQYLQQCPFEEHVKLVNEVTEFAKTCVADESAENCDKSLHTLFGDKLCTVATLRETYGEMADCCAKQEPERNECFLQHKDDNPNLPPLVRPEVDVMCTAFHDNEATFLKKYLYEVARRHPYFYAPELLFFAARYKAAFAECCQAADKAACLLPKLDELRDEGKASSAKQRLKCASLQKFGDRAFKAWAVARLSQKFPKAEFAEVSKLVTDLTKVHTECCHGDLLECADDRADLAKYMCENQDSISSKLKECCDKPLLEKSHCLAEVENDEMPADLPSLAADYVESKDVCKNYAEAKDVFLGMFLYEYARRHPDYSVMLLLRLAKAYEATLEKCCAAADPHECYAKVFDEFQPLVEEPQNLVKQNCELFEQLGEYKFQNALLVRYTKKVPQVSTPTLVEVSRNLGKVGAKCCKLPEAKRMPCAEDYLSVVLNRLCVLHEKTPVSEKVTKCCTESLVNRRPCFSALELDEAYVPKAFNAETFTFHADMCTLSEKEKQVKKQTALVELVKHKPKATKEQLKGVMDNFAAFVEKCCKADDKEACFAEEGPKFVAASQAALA
For the molecule B9, binding was put at a Kd of 4.05 nM and the koff is 0.000608 s⁻¹.

In the case of B10, the Kd turned out to be 12 nM and the koff worked out at 0.00173 s⁻¹.

Turning to B11, binding was put at a Kd of 3.62 nM and the koff stood at 0.000541 s⁻¹.

On to B12, for which the Kd was 2.6 nM and the koff came out at 0.000422 s⁻¹.

The molecule B13 showed a Kd of 5.73 nM and a koff of 0.000864 s⁻¹.

In turn, B14 registered a Kd of 3.37 nM and a koff of 0.000618 s⁻¹.

In the case of B15, the Kd turned out to be 6.65 nM and the koff was determined as 0.00102 s⁻¹.

Regarding B16, the affinity, expressed as Kd, was 6.1 nM and the koff worked out at 0.000874 s⁻¹.

Regarding B17, the Kd stood at 3.58 nM and the koff was determined as 0.000532 s⁻¹.

A further experiment addresses T4, mouse serum albumin (mouse, UniProt P07724 25-608).
T4 construct: also called MSA
The experiment in a line: Octet HTX (ForteBio), HCAb on AHC sensor, 1:1 fit.
For the molecule B9, the Kd amounted to 44.8 nM and the koff was 0.00877 s⁻¹.

B10: the Kd was 17.5 nM and the koff is 0.0038 s⁻¹.

For the molecule B11, the Kd came out at 15.1 nM and the koff is 0.00324 s⁻¹.

The molecule B12 showed a Kd of 4.32 nM and a koff of 0.00107 s⁻¹.

B13: binding was characterised by a dissociation constant (Kd) of 41.1 nM and the koff turned out to be 0.00854 s⁻¹.

For the molecule B14, the equilibrium dissociation constant (Kd) came to 6.43 nM and the koff was found to be 0.00132 s⁻¹.

B15 showed a Kd of 12 nM and a koff of 0.00274 s⁻¹.

Consider B16, for which the Kd amounted to 50.6 nM and the koff amounted to 0.0105 s⁻¹.

Take B17: the Kd was 16.1 nM and the koff is 0.00341 s⁻¹.

A further experiment deals with protein A (UniProt P38507 37-327). Briefly: Octet HTX (ForteBio), HCAb on AHC sensor, 1:1 fit.
On to B9, for which the Kd was found to be 1.78 nM and the dissociation rate constant (koff) is 0.0002 s⁻¹.

B11 registered a Kd of 2.02 nM and a koff of 0.000221 s⁻¹.

With B16, the Kd amounted to 1.7 nM and the koff worked out at 0.0002 s⁻¹.

Consider B17, for which binding was put at a Kd of 1.84 nM and the koff amounted to 0.0002 s⁻¹.

In another experiment the target is T4, mouse serum albumin. The experiment in a line: ratio of the Octet KD for mouse serum albumin to that for human serum albumin.
Consider B9, for which the “Ratio of MSA-KD to HSA-KD” value stood at 8.07.

Take B10: the “Ratio of MSA-KD to HSA-KD” value turned out to be 1.2.

For B11, the “Ratio of MSA-KD to HSA-KD” value is 3.09.

On to B12, for which the “Ratio of MSA-KD to HSA-KD” value is 1.37.

On to B13, for which the “Ratio of MSA-KD to HSA-KD” value was 5.59.

With B14, the “Ratio of MSA-KD to HSA-KD” value came out at 2.17.

Turning to B15, the “Ratio of MSA-KD to HSA-KD” value was determined as 1.28.

As to B16, the “Ratio of MSA-KD to HSA-KD” value was 6.57.

As to B17, the “Ratio of MSA-KD to HSA-KD” value was determined as 3.17.

The values are drawn from patent publication US20230037815A1 (CULLINAN THERAPEUTICS, published 2023).
